According to patent US20080242587A1:

How the values were obtained:
[1] = target: Ang2 (produced from CHO cell) (UniProt O15123); test: ELISA titration, Ang2 coated, anti-human Fc-HRP
[2] = target: VEGF-A165 (produced from CHO cell) (UniProt P15692); test: ELISA titration (0-3 nM), VEGF-A coated, anti-human Fc-HRP
Chain of UniProt P15692 (P15692 other isoform, or with tags, fused parts or gaps limits assumed): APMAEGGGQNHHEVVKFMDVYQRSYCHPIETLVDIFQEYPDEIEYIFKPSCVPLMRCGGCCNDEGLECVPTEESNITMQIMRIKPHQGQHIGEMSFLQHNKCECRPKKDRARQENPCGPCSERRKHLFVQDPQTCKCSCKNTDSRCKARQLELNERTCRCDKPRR

Chain of UniProt O15123 (O15123 19-496 limits assumed): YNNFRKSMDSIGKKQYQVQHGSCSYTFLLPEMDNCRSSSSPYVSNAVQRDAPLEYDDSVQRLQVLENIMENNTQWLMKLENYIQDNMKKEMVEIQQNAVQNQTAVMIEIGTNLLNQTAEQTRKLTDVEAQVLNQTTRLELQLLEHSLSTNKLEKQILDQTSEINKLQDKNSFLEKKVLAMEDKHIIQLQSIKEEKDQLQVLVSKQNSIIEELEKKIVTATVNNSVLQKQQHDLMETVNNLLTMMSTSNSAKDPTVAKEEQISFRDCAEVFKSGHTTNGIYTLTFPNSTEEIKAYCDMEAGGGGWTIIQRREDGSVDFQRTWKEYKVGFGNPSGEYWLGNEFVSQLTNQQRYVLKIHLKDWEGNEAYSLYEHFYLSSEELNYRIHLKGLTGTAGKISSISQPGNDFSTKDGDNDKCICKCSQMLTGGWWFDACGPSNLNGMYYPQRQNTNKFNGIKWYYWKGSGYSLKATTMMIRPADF

Row | Kd [1] | Kd [2] | Substance
1 | 50 nM |  | Tie2-Fc (Fc fusion)
2 |  | 1 pM | VEGF-trap (Fc fusion)
